Experimental data from patent US20170137467A1 (CHROMOTEK, published 2017).
Numbering of substitutions follows the chain as printed.

B1: BC2 nanobody (VHH)
VHH: QVQLVESGGGLVQPGGSLTLSCTASGFTLDHYDIGWFRQAPGKEREGVSCINNSDDDTYYADSVKGRFTIFMDNAKDTVYLQMNSLKPEDTAIYYCAEARGCKRGRYEYDFWGQGTQVTVSS
notes: immobilised on beads in this assay; also called BC2-Nb; BC2 nanotrap (immobilised)
B2: BC2-NbR106S (VHH)
VHH: B1 VHH with R106S
notes: headlock mutant of BC2-Nb; immobilised on beads in this assay

Assays:
Assay in all cases: positional peptide library pulldown on immobilised Nb, LC-MS of supernatant; signal ratio to control GFP-Nb (1 = not captured, near 0 = captured)
[1] = biological target: T1, BC2T Q11G
T1 construct: positional scanning library member
T1 peptide: Ac-PDRKAAVSHWGQ-NH2
How it was run: (§1)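 Unbound peptide left in supernatant after 1 h pulldown in PBS/0.01% CHAPS measured by reversed-phase LC-MS (8–30% eluent B gradient, 20 min).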

[2] = biological target: T2, BC2T S8V
T2 construct: positional scanning library member
T2 peptide: Ac-PDRKAAVVHWQQ-NH2
How it was run: as §1

[3] = biological target: T3, BC2T W10(I/L1) (N-terminal acetyl; C-terminal amide)
T3 construct: positional scanning library member; I or L not resolved
How it was run: as §1

[4] = biological target: T4, BC2T Q11(I/L1) (N-terminal acetyl; C-terminal amide)
T4 construct: positional scanning library member; I or L not resolved
How it was run: as §1

[5] = biological target: T5, BC2T Q12P
T5 construct: positional scanning library member
T5 peptide: Ac-PDRKAAVSHWQP-NH2
How it was run: as §1

[6] = biological target: T6, BC2T Q11F
T6 construct: positional scanning library member
T6 peptide: Ac-PDRKAAVSHWFQ-NH2
How it was run: as §1

[7] = biological target: T7, BC2T Q12W
T7 construct: positional scanning library member
T7 peptide: Ac-PDRKAAVSHWQW-NH2
How it was run: as §1

[8] = biological target: T8, BC2T H9S
T8 construct: positional scanning library member
T8 peptide: Ac-PDRKAAVSSWQQ-NH2
How it was run: as §1

[9] = biological target: T9, BC2T Q12S
T9 construct: positional scanning library member
T9 peptide: Ac-PDRKAAVSHWQS-NH2
How it was run: as §1

[10] = biological target: T10, BC2T S8T
T10 construct: positional scanning library member
T10 peptide: Ac-PDRKAAVTHWQQ-NH2
How it was run: as §1

[11] = biological target: T11, BC2T Q12T
T11 construct: positional scanning library member
T11 peptide: Ac-PDRKAAVSHWQT-NH2
How it was run: as §1

[12] = biological target: T12, BC2T S8N
T12 construct: positional scanning library member
T12 peptide: Ac-PDRKAAVNHWQQ-NH2
How it was run: as §1

[13] = biological target: T13, BC2T S8Y
T13 construct: positional scanning library member
T13 peptide: Ac-PDRKAAVYHWQQ-NH2
How it was run: as §1

[14] = biological target: T14, BC2T H9Y
T14 construct: positional scanning library member
T14 peptide: Ac-PDRKAAVSYWQQ-NH2
How it was run: as §1

[15] = biological target: T15, BC2T Q11Y
T15 construct: positional scanning library member
T15 peptide: Ac-PDRKAAVSHWYQ-NH2
How it was run: as §1

[16] = biological target: T16, BC2T Q12Y
T16 construct: positional scanning library member
T16 peptide: Ac-PDRKAAVSHWQY-NH2
How it was run: as §1

[17] = biological target: T17, BC2T W10K
T17 construct: positional scanning library member
T17 peptide: Ac-PDRKAAVSHKQQ-NH2
How it was run: as §1

[18] = biological target: T18, BC2T Q12K
T18 construct: positional scanning library member
T18 peptide: Ac-PDRKAAVSHWQK-NH2
How it was run: as §1

[19] = biological target: T19, BC2T W10R
T19 construct: positional scanning library member
T19 peptide: Ac-PDRKAAVSHRQQ-NH2
How it was run: as §1

[20] = biological target: T20, BC2T Q11R
T20 construct: positional scanning library member
T20 peptide: Ac-PDRKAAVSHWRQ-NH2
How it was run: as §1

[21] = biological target: T21, BC2T S8H
T21 construct: positional scanning library member
T21 peptide: Ac-PDRKAAVHHWQQ-NH2
How it was run: as §1

Binder	ratio [1]	ratio [2]	ratio [3]	ratio [4]	ratio [5]	ratio [6]	ratio [7]	ratio [8]	ratio [9]	ratio [10]	ratio [11]	ratio [12]	ratio [13]	ratio [14]	ratio [15]	ratio [16]	ratio [17]	ratio [18]	ratio [19]	ratio [20]	further results
B1	0.1	0.1	1	0.1	0.1	0	0.1	0.2	0.1	0.1	0.1	0.2	0.6	0.1	0	0.1	1	0	1	0	ratio [21]: 0.7
B2	0.5	0.3	1.1	0.2	0.2	0.2	0.3	0.5	0.2	0.2	0.3	0.7	0.9	0.2	0.1	0.3	1.1	0.1	1.1	0.1	ratio [21]: 0.9
